Results reported in article PMC9500956, “In Vitro Characterization of the Physical Interactions between the Long Noncoding RNA TERRA and the Telomeric Proteins TRF1 and TRF2”.

Columns and labels:
Assay in all cases: EMSA; E. coli tRNA; RNA EMSA: 50 mM HEPES pH 8, 1 mM DTT, 100 mM NaCl, 0.01% BSA, 2% glycerol, 50 ng/uL E. coli tRNA, 0.25 nM RNA, 20 min on ice then 10 min 25 C; dsDNA EMSA: same
GST-B (hB) = molecular target: T1, GST-B (hB) (human, UniProt Q15554 43-86); conditions: protein: recombinant, tags: N-terminal GST, label: 5'-32P
T1 chain: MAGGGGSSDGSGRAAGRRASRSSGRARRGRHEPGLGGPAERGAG

GST-TRF2 = GST-TRF2 (human, UniProt Q15554 43-542); conditions: protein: recombinant, tags: N-terminal GST, chain copies: 2, label: 5'-32P
GST-TRF1 = GST-TRF1 (human, UniProt P54274 1-439); conditions: protein: recombinant, tags: N-terminal GST, chain copies: 2, label: 5'-32P
GST-hBL = GST-hBL (human, UniProt Q15554 1-86); conditions: protein: recombinant; tags: N-terminal GST; label: 5'-32P; G4-forming
GST-A (hA) = molecular target: T2, GST-A (hA) (human, UniProt P54274 1-66); conditions: protein: recombinant; tags: N-terminal GST; label: 5'-32P; G4-forming
T2 sequence: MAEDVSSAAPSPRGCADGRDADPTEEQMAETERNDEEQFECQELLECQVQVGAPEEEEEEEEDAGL

B1: TERRA (UUAGGG)12 (structured_RNA)
RNA: UUAGGGUUAGGGUUAGGGUUAGGGUUAGGGUUAGGGUUAGGGUUAGGGUUAGGGUUAGGGUUAGGGUUAGGG
GST-B (hB)
  binding result: binds

## AUAGGGAUAGGGAUAGGGAUAGGGAUAGGG (structured_RNA) [MUT3 (AUAGGG)5]
GST-TRF2; G4-forming
  binding result: binds
GST-TRF1; G4-forming
  binding result: binds
GST-B (hB); G4-forming
  binding result: binds

## UUACGGUUACGGUUACGGUUACGGUUACGG (ssRNA) [MUT1 (UUACGG)5]
GST-TRF2; not G4-forming
  binding result: no binding
GST-TRF1; not G4-forming
  binding result: no binding
GST-B (hB); not G4-forming
  binding result: no binding

## UUAGGGUUAGGGUUAGGGUUAGGGUUAGGG (structured_RNA) [TERRA (UUAGGG)5]
GST-hBL
  binding result: binds
GST-A (hA)
  binding result: no binding
GST-TRF2; G4-forming
  binding result: binds
GST-TRF1; G4-forming
  binding result: binds
GST-B (hB); G4-forming
  binding result: binds

## AAAGGGAAAGGGAAAGGGAAAGGGAAAGGG (structured_RNA) [MUT4 (AAAGGG)5]
GST-TRF2; G4-forming
  binding result: binds
GST-TRF1; G4-forming
  binding result: binds
GST-B (hB); G4-forming
  binding result: binds

## UUACCGUUACCGUUACCGUUACCGUUACCG (ssRNA) [MUT2 (UUACCG)5]
GST-TRF2; not G4-forming
  binding result: no binding
GST-TRF1; not G4-forming
  binding result: no binding
GST-B (hB); not G4-forming
  binding result: no binding
